In patent publication US20040043420A1, “Method of identifying conformation-sensitive binding peptides and uses thereof” (priority 2003, published 2004):

Tests used:
androgen receptor [1] = molecular target: T1, androgen receptor (Homo sapiens, UniProt P10275); type: cell-based; parameters: expressed in transfected cells
T1 sequence (P10275 1-920): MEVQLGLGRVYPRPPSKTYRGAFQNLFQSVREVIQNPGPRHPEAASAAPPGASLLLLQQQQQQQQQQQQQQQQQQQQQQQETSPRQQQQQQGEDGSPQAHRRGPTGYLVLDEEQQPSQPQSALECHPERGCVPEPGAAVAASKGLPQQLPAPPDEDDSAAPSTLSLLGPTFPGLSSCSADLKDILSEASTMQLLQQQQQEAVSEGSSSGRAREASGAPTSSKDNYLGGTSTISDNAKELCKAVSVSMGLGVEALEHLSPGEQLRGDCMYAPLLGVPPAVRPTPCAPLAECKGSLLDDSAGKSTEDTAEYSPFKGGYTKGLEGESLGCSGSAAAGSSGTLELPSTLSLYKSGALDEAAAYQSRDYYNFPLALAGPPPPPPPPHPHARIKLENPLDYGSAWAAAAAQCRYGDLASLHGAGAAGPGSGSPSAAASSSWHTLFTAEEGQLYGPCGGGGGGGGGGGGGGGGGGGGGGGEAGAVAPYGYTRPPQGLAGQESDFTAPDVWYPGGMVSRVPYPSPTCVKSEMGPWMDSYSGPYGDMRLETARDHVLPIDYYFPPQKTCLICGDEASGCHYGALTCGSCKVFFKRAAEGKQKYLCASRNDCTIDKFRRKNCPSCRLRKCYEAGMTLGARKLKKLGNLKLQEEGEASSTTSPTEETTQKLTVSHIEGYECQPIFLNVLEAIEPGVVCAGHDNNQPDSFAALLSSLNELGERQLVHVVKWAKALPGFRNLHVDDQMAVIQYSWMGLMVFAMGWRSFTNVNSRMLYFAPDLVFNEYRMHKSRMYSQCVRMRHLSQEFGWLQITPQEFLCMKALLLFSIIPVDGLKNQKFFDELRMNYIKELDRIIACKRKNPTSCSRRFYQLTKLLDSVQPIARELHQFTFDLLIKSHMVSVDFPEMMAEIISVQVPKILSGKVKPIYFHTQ

androgen receptor [2] = molecular target: T1, androgen receptor; assay: Yeast two-hybrid screening of unbiased X15 peptide library, ligand-induced β-galactosidase activity (FIG. 3, Table 503); type: cell-based; parameters: expressed in transfected cells; host or cells: Saccharomyces cerevisiae PJ69-4α
Description: Our library contained predominantly 15 random amino acid residues/peptide in order to identify motifs that might interact with nuclear receptor domains. If ligand is provided to the cells, one can screen for peptides that interact with the ligand-bound receptor. […] Included at the ends of the oligonucleotide were the synthetic restriction endonuclease cleavage sites, EcoRI or Mfe I (5′ end) and Sal I (3′ end). Oligonucleotides were annealed, then cleaved with excess restriction endonuclease and purified on agarose gels. The purified set of oligonucleotides was subcloned as an in-frame carboxy-terminal fusion to a Gal4 DNA binding domain (plasmid vector pMA424 derivative). […] The transformation mix was divided and grown on plates of selective media containing ligand and 25 mM 3-aminotriazole at 30° C. until colonies appeared in 3-7 days. […] Dihydrotestosterone (DHT) and medroxyprogesterone (MPA) were added to the media at 100 nM to identify peptides that interact with the receptor in the presence of ligand. After colonies appeared they were picked and dispersed into individual wells of a 96-well plate containing rich media (YPD).
To determine ligand dependence, two microliter aliquots were removed from the cell suspension, and arrayed and spotted onto each of two rectangular agar plates, one with 100 nM ligand and one without ligand. Growth was monitored daily.
A secondary test of ligand dependent activation was performed using the integrated GAL4-driven lacZ gene. Cell suspensions of the initial positive clones were diluted 20-fold into 20 microliters of rich media in a microplate and grown overnight at 30° C. in the presence and absence of ligand. Microplates were centrifuged for 5 minutes at 3000 rpm in a swinging table top centrifuge to pellet the yeast cells, and the overlying media was aspirated. […] An OD650 density determination was made to normalize the β-galactosidase activity. β-galactosidase activity was monitored following the addition of buffer containing chlorophenol red-1-galactopyranoside (CPRG) (Boehringer Mannheim) substrate at a final concentration of 0.5 mM. […] The maximum slope value of this measurement was normalized to cell density from the initial OD650 value, and the relative ligand dependence of β-galactosidase was determined by comparing the values plus and minus ligand.
In FIG. 3, all of these ligands were tested. The plasmids from true positives were extracted using standard yeast extraction protocols and re-transformed to verify the positive phenotype.

androgen receptor [3] = molecular target: T1, androgen receptor; type: cell-based; parameters: expressed in transfected cells; remark: listed apart in the source
Description: We used a mammalian two-hybrid system to determine specificities of the AR-binding peptides previously identified, through screening of the aforementioned yeast library, as ligand-dependent in their binding activity. Ligand was provided to the cells so the interaction could be observed. The human hepatoma cell line, Huh-7, was used as the recipient of two-hybrid vectors, pM and pVP16 (Clontech) (FIGS. 6A and 6B), containing fusions with peptide and AR, respectively. According to Clontech literature, the Clontech vectors pM and VP16 generate fusions of protein X with the GAL4 DNA-BD and fusions of protein Y with the VP16AD, in the Mammalian MM Two-Hybrid Assay Kit (#K1602-1). (Note: pM and VP16 contain unique cloning sites in the same order and reading frame as the DNA-BD and AD, respectively, vectors in the yeast […] Two-Hybrid Systems.) A third vector, pG5CAT, provides a CAT reporter gene under the control of a GAL4-responsive element and minimal promoter of the adenovirus E1b. The three vectors are cotransfected into any suitable mammalian host cell line by standard methods. The interaction between proteins X and Y is then assayed by measuring CAT gene expression by any standard method. In the absence-of activation (i.e., no protein-protein interaction), the minimal E1b promoter will not express significant levels of CAT.
Briefly, cells are seeded in a 24-well culture plate to a density of 50-80% confluence in phenol red-free media containing charcoal-dextran stripped fetal bovine serum (10%). Following incubation overnight, cells are transfected with plasmids pM-peptide, pVP16-AR, pCMV-b-gal, and p5XGAL-Luc3 DNAs using lipofectamine 2000 (LifeTech) according to the manufacturer's protocol. Transfections are allowed to proceed for 6 hours and the transfection media is aspirated and replaced with recovery media for 18 hours. Following the recovery period, cells are treated with compound for 24 hours prior to cell harvesting. Cells are washed with PBS and then lysed using the lysis buffer from the Galacto-Light Plus β-galactosidase assay kit (Tropix). Assays for luciferase and β-galactosidase were performed as described by the manufacturer. Peptide/AR interactions are described in terms of the luciferase activity normalized for transfection efficiency using β-galactosidase activity (see FIG. 4A). Two types of useful information arose from these methods: 1) we generated a panel of useful peptide probes to analyze the conformational state of AR, and 2) we “fingerprinted” AR modulators with respect to AR conformation (FIG. 4B). […] FIG. 4B is the converse of 4A. It compares the ability of six ligands (DHT, MPA, CYP, RU486, FLUT and DHEAs to interact with AR in the presence of each of four peptides (D30, 5G11, B8H3 and […]). Thus, it is a “fingerprint” of each of the six ligands using a four peptide panel. (Note that “1269” and D30″ refer to the same peptide.)

ER β [4] = molecular target: T2, ER β (UniProt Q92731 1-530, limits assumed); assay: peptide probe binding to ERβ, Estriol
T2 construct: In vitro; also called estrogen receptor β; ERβ-ERE
T2 sequence (Q92731 whole entry): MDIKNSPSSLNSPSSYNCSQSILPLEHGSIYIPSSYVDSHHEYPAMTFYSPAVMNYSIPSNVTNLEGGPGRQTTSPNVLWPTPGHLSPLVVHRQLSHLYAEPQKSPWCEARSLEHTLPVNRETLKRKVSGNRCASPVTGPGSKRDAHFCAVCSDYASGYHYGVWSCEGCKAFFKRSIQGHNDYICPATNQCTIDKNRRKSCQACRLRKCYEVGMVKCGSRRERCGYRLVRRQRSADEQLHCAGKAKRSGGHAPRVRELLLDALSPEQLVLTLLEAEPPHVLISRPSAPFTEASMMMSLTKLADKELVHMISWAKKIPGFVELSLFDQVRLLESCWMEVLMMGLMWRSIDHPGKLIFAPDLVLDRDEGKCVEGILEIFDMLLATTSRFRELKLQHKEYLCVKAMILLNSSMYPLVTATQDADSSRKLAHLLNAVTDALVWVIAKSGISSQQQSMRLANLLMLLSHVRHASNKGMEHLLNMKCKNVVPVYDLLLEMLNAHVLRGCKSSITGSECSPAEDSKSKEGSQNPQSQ

ER β [5] = molecular target: T2, ER β; assay: peptide probe binding to ERβ, GW 7604
ER α [6] = molecular target: T3, ER α (UniProt P03372 1-595, limits assumed); assay: peptide probe binding to ERα, 4-OH Tamoxifen
T3 construct: also called estrogen receptor α; ERα-ERE
T3 sequence (looked up): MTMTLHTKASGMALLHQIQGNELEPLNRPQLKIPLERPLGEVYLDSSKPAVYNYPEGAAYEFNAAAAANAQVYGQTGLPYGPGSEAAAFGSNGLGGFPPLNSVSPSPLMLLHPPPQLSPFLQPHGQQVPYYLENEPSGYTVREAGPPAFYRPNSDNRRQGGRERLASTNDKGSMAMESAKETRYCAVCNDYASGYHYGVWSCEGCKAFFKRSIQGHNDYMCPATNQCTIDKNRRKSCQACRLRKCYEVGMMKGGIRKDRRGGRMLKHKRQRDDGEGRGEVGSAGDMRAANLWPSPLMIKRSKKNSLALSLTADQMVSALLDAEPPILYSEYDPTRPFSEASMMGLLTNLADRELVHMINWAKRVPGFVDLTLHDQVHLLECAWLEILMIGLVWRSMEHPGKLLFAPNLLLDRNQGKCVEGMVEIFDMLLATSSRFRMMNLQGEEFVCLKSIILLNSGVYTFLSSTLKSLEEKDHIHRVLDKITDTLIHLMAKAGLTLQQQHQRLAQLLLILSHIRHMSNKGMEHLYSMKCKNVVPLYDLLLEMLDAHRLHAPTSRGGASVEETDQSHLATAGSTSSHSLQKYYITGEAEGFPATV

ER β [7] = molecular target: T2, ER β; assay: peptide probe binding to ERβ, Clomiphene
ER α [8] = molecular target: T3, ER α; assay: peptide probe binding to ERα, Diethylstilbesterol
ER β [9] = molecular target: T2, ER β; assay: peptide probe binding to ERβ, Raloxifene
ER β [10] = molecular target: T2, ER β; assay: peptide probe binding to ERβ, 17β-Estradiol
ER α [11] = molecular target: T3, ER α; assay: peptide probe binding to ERα, ICI 182,780
ER α, P03372 [12] = molecular target: T4, ER α, P03372; assay: peptide probe binding to ERα, Raloxifene
T4 chain: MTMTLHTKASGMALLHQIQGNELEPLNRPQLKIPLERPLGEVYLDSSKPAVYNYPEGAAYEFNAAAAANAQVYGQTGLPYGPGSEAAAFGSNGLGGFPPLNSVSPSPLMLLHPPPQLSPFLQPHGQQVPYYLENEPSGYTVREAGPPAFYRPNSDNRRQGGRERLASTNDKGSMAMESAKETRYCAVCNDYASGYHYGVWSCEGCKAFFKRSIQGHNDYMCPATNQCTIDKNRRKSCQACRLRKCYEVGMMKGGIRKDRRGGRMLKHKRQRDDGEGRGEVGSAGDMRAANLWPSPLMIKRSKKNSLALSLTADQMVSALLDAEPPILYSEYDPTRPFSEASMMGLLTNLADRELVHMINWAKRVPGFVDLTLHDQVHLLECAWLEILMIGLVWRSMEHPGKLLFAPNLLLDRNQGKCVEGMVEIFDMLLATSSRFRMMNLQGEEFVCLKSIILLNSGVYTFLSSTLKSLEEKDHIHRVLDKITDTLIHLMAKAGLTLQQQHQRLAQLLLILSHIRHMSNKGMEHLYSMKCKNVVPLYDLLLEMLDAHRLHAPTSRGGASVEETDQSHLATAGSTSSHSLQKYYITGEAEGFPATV

ER α, P03372 [13] = molecular target: T4, ER α, P03372; assay: peptide probe binding to ERα, Nafoxidine
ER α, P03372 [14] = molecular target: T4, ER α, P03372; assay: peptide probe binding to ERα, 17α-Estradiol
ER α, P03372 [15] = molecular target: T4, ER α, P03372; assay: peptide probe binding to ERα, Diethylstilbesterol
ER α, P03372 [16] = molecular target: T4, ER α, P03372; assay: peptide probe binding to ERα, 4-OH Tamoxifen
ER α, P03372 [17] = molecular target: T4, ER α, P03372; assay: peptide probe binding to ERα, Estriol
ER α, P03372 [18] = molecular target: T4, ER α, P03372; assay: peptide probe binding to ERα, Clomiphene
ER α, P03372 [19] = molecular target: T4, ER α, P03372; assay: peptide probe binding to ERα, GW7604
ER α, P03372 [20] = molecular target: T4, ER α, P03372; assay: peptide probe binding to ERα, ICI 182,780
ER α, P03372 [21] = molecular target: T4, ER α, P03372; assay: peptide probe binding to ERα, Buffer
ER α, P03372 [22] = molecular target: T4, ER α, P03372; assay: peptide probe binding to ERα, 17β-Estradiol
ER α [23] = molecular target: T3, ER α; assay: phage isolated on ERα-ERE; Raloxifen
ER α, P03372 [24] = molecular target: T4, ER α, P03372; assay: peptide probe binding to ERα, all modulators

EFQQCMCAEVKSWLGGSLDLOPS* [B8E9]
Binding to the androgen receptor in the presence of agonists and known antagonists (androgen receptor [1]; ligand present (agonists, known antagonists)): displays binding
Binding to the androgen receptor in the absence of ligand (androgen receptor [1]; no ligand): not in the absence of ligand
Fold induction (androgen receptor [2]): 4
Yeast Specificity Graph (FIG. 3): CPA (androgen receptor [2]; ligand CPA): 0.5635
Yeast Specificity Graph (FIG. 3): DHT (androgen receptor [2]; ligand DHT): 1.75
Yeast Specificity Graph (FIG. 3): RU (androgen receptor [2]; ligand RU): 0.8
Yeast Specificity Graph (FIG. 3): No Lig (androgen receptor [2]; no ligand): 0.4989
Mammalian Cell Specificity Graph (FIG. 4): CYP. (androgen receptor [3]): 16.02 Relative Light Units
Mammalian Cell Specificity Graph (FIG. 4): DHT (androgen receptor [3]; ligand DHT): 19.64 Relative Light Units
Mammalian Cell Specificity Graph (FIG. 4): MPA (androgen receptor [3]; ligand MPA): 18.51 Relative Light Units
Mammalian Cell Specificity Graph (FIG. 4): RU486 (androgen receptor [3]; ligand RU486): 10.1916 Relative Light Units
Mammalian Cell Specificity Graph (FIG. 4): no compound (androgen receptor [3]; no compound): 0.2091 Relative Light Units

B1: α/β III (peptide)
peptide: SSWDMHQFFWEGVSR
notes: also called AB3
Equiv. (ER β [4]): -57%
Equiv. (ER β [5]): -86%
Equiv. (ER α [6]): 100%
Equiv. (ER β [7]): 34%
Equiv. (ER α [8]): -53%
Equiv. (ER β [9]): 77%
Equiv. (ER β [10]): -71%
Equiv. (ER α [11]): -100%

B2: phage 5 (Table 2) (peptide)
peptide: SSLTSRDFGSWYASR
modifications: not checked
Equiv. (ER α, P03372 [12]): 44%
Equiv. (ER α, P03372 [13]): 32%
Equiv. (ER α, P03372 [14]): 80%
Equiv. (ER α, P03372 [15]): 69%
Equiv. (ER α, P03372 [16]): 38%
Equiv. (ER α, P03372 [17]): 62%
Equiv. (ER α, P03372 [18]): 56%
Equiv. (ER α, P03372 [19]): 35%
Equiv. (ER α, P03372 [20]): 56%
Equiv. (ER α, P03372 [21]): 0%
Equiv. (ER α, P03372 [22]): 100%

B3: 2R (peptide)
peptide: SSLNMVVDTPWCGKWVCSR
binding result (ER α [23]): binds

B4: 1R (peptide)
peptide: SRLCFGDWCMLGGVDVLSR
binding result (ER α [23]): binds

B5: #13 ER (peptide)
peptide: SRTWESPLGTWEWSR
modifications: not checked
Equiv. (ER α, P03372 [24]): 0%
